Reference: paper PMC4070925
Where a chain is given by its changes, count along the chain named.

B1: Truncate I (structured_DNA)
DNA: GGTTGGTGTGGTTGGTTGGTTGGCGTTCAAAGCAGTCTTGGGCTAAGTCCGTGGTAGGGCAGGTTGGGGTGACTGTAGCTAAACTGCTTTGTCGACGGG
B2: Bivalent Linker 1 (structured_DNA)
DNA: AGATGCCTGTCGAGCATGCTGGTTGGTGTGGTTGGATTGGGGGGCAGAATGCCAGTTTAGCGTACAGTCCGTGGTAGGGCAGGTTGGGGTGACTGTAGCTAAACTGCTTTGTCGACGGG
B3: Bivalent Linker 4 (structured_DNA)
DNA: B2 DNA with A36G, G40T, C45A, G47T, T50A, G51A, C52G
B4: Truncate II (structured_DNA)
DNA: AGATGCCTGTCGAGCATGCTGGTTGGTGTGGTTGGTTGGTTGGCGTTCAAAGCAGTCTTGGGCTAAGTCCGTGGTAGGGCAGGTTGGGGTGACT
B5: Truncate III (structured_DNA)
DNA: GGTTGGTGTGGTTGGTTGGTTGGCGTTCAAAGCAGTCTTGGGCTAAGTCCGTGGTAGGGCAGGTTGGGGTGACT
B6: Bivalent Linker 2 (structured_DNA)
DNA: AGATGCCTGTCGAGCATGCTGGTTGGTGTGGTTGGTTGGTTGGCGTTCAAAGCAGTCTTGGGCTAAGTCCGTGGTAGGGCAGGTTGGGGTGACTGTAGCTAAACTGCTTTGTCGACGGG
B7: Bivalent Linker 3 (structured_DNA)
DNA: AGATGCCTGTCGAGCATGCTGGTTGGTGTGGTTGGGTAGGGGCCCAGCATGACAGTTTTTGCCAAAGTCCGTGGTAGGGCAGGTTGGGGTGACTGTAGCTAAACTGCTTTGTCGACGGG
B8: Bivalent Linker 5 (structured_DNA)
DNA: AGATGCCTGTCGAGCATGCTGGTTGGTGTGGTTGGAAGTAGGTGGTTCAAAGCAGTGAAGGGTACAGTCCGTGGTAGGGCAGGTTGGGGTGACTGTAGCTAAACTGCTTTGTCGACGGG
B9: Apt-29 (structured_DNA)
DNA: AGTCCGTGGTAGGGCAGGTTGGGGTGACT
B10: Bivalent Linker 6 (structured_DNA)
DNA: AGATGCCTGTCGAGCATGCTGGTTGGTGTGGTTGGCGGGGGCCCTCTATAGTTGCGTTCTGGATGAGTCCGTGGTAGGGCAGGTTGGGGTGACTGTAGCTAAACTGCTTTGTCGACGGG

What follows are binders tested against thrombin (UniProt P00734;P00734 315-363;364-622) (assay: plate binding assay (streptavidin-peroxidase); Thrombin-coated plate; 5'-biotin aptamer in HEPES buffer (full composition not in material) 1 h; washes 40 mM HEPES pH 7.5, 0.05% Tween-20; block 1 mg/ml BSA +).

| Binder | apparent K (half saturation) [nM] |
| --- | --- |
| B1 | 1 |
| B2 | 1.4 |
| B3 | 0.4 |
| B4 | 0.5 |
| B5 | 0.5 |
| B6 | 0.2 |
| B7 | 0.4 |
| B8 | 1 |
| B9 | 0.7 |
| B10 | ~20 |
